# Source: patent US20220143136A1, “USE OF ANNEXINS IN PREVENTING AND TREATING MUSCLE MEMBRANE INJURY” (NORTHWESTERN UNIVERSITY, priority 2018, published 2022)
# “Also recorded” adds a separate entry of the source.
# B1: annexin A6: annexin A6 with carboxyl-terminal turboGFP or tdTomato tag, expressed from plasmid electroporated into myofibers (protein, UniProt P14824 2-673, looked up)
# Annexin A6: AKIAQGAMYRGSVHDFPEFDANQDAEALYTAMKGFGSDKESILELITSRSNKQRQEICQNYKSLYGKDLIEDLKYELTGKFERLIVNLMRPLAYCDAKEIKDAISGVGTDEKCLIEILASRTNEQMHQLVAAYKDAYERDLESDIIGDTSGHFQKMLVVLLQGTRENDDVVSEDLVQQDVQDLYEAGELKWGTDEAQFIYILGNRSKQHLRLVFDEYLKTTGKPIEASIRGELSGDFEKLMLAVVKCIRSTPEYFAERLFKAMKGLGTRDNTLIRIMVSRSELDMLDIREIFRTKYEKSLYSMIKNDTSGEYKKALLKLCGGDDDAAGQFFPEAAQVAYQMWELSAVSRVELKGTVCAANDFNPDADAKALRKAMKGIGTDEATIIDIVTHRSNAQRQQIRQTFKSHFGRDLMADLKSEISGDLARLILGLMMPPAHYDAKQLKKAMEGAGTDEKTLIEILATRTNAEIRAINEAYKEDYHKSLEDALSSDTSGHFRRILISLATGNREEGGENRDQAQEDAQVAAEILEIADTPSGDKTSLETRFMTVLCTRSYPHLRRVFQEFIKKTNYDIEHVIKKEMSGDVKDAFVAIVQSVKNKPLFFADKLYKSMKGAGTDEKTLTRVMVSRSEIDLLNIRREFIEKYDKSLHQAIEGDTSGDFMKALLALCGGED
# modifications: C-terminal turboGFP or tdTomato tag
# notes: annexin A6 with carboxyl-terminal turboGFP or tdTomato tag, expressed from plasmid electroporated into myofibers
# Columns and labels:
# [1] = system: myofibers; assay: Annexin repair cap formation after laser injury at multiple Ca2+ concentrations; type: cell-based, mouse; settings: fluorescently tagged annexin expressed in myofibers; Ca2+ 0-2 mM; modified Hill equation
# Experimental: (§1) Electroporation, myofiber isolation, laser injury, cap and vesicle measurement. Flexor digitorum brevis (FDB) fibers were transfected with endo-free plasmid DNA by in vivo electroporation. Methods were described previously in (Demonbreun and McNally, 2015; Demonbreun et al., 2016b; DiFranco et al., 2009). Z-stack projections were acquired from consecutive acquisitions after the final time-lapse frame, approximately 4 minutes post damage, with a […] step size between slices. Z-stack renderings were constructed in FIJI. Measurement of the cap area and feret diameter were conducted from a single slice near the middle of the z-stack using FIJI imaging tools. Fibers expressing similar levels of tagged or GCaMP5G protein were compared. GCaMP5G Ca^2+ fluorescence was measured from the acquired timelapse images, using a standard rectangular ROI, placed inside the myofiber below the site of damage using FIJI. Fluorescence was expressed as F/F0. External vesicle number and GCaMP5G area were measured from endpoint z-stacks and max projection images using FIJI. Vesicles were considered external if they were found outside the sarcolemma assessed in brightfield and fluorescent channels. All measurements were acquired from myofibers isolated from at least n≥3 mice, n≥3 myofibers per mouse.
# Calcium kinetics. FDB muscle was electroporated and isolated as described above. Myofibers were damaged in Ringers solution with Ca^2+ concentrations of 2 mM, 1 mM, 0.5 mM, 0.25 mM, 0.175 mM, 0.1 mM, 0.050 mM, and 0 mM. EDTA was added as a Ca^2+ chelating agent in only in the 0 mM Ca^2+ Ringers. Myofibers were isolated directly into 2 mM, 1 mM and 0.5 mM Ringers for those experiments respectively. For experiments using less than 0.5 mM Ca^2+ myofibers were isolated in 0.5 mM Ca^2+ Ringers and then diluted with 0 mM EDTA-free Ca^2+ Ringers. For 0 mM experiments, myofibers were isolated in 0.5 mM Ca^2+ Ringers and then replaced with 0 mM Ca^2++EDTA Ringers just prior to imaging. Co-electroporation of wildtype annexin+wildtype annexin constructs was performed in one mouse foot, while the contralateral foot was co-electroporated with wildtype annexin+mutant annexin. All measurements were acquired from myofibers isolated from at least n≥2 mice, n≥3 myofibers per mouse at each Ca^2+ concentration. Area-Ca^2+ curves were fitted with a Hill Curve at Ca^2+ concentrations ranging from 0-2 mM. Kinetic parameters were calculated using Prism Graphpad.
# as §1, with “(Demonbreun A R, Quattrocelli M, Barefield D Y, Allen M V, Swanson K E,” for “(Demonbreun”, “McNally E M. An actin-dependent annexin complex mediates plasma membrane repair in muscle. The Journal of cell biology. 2016; 213(6):705-18; Demonbreun A R, and McNally E M. DNA Electroporation, Isolation and Imaging of Myofibers. Journal of visualized experiments: JoVE.” for “McNally,”, “106(106):e53551;” for “Demonbreun et al., 2016b;”, “M, Quinonez M, Capote J, and Vergara J. DNA transfection of mammalian skeletal muscles using in vivo electroporation. Journal of visualized experiments: JoVE. 2009; 32(32)).” for “et al., 2009).”, “Vesicles were considered external if they were found outside the sarcolemma assessed in brightfield and fluorescent channels. All measurements were acquired from myofibers isolated from at least n≥3 mice, n≥3 myofibers per mouse.” left out
# [2] = system: myofibers; assay: Bleb formation and intracellular Ca2+ fluorescence (GCaMP5G, Fluo-4) after laser injury with annexin overexpression; type: cell-based, mouse; settings: for internal GCaMP5G Ca2+ fluorescence at the site of injury: vs GCaMP5G alone
# Experimental: as §1
# as §1, with “(Demonbreun A R, Quattrocelli M, Barefield D Y, Allen M V, Swanson K E,” for “(Demonbreun”, “McNally E M. An actin-dependent annexin complex mediates plasma membrane repair in muscle. The Journal of cell biology. 2016; 213(6):705-18; Demonbreun A R, and McNally E M. DNA Electroporation, Isolation and Imaging of Myofibers. Journal of visualized experiments: JoVE.” for “McNally,”, “106(106):e53551;” for “Demonbreun et al., 2016b;”, “M, Quinonez M, Capote J, and Vergara J. DNA transfection of mammalian skeletal muscles using in vivo electroporation. Journal of visualized experiments: JoVE. 2009; 32(32)).” for “et al., 2009).”
# Calcium and pH indicator dye measurements. Wildtype FDBs were isolated and plated in Ringers on Matek glass-bottom dishes as described above. Twenty minutes prior to imaging, myofibers were loaded with Fluo-4 AM at 37° C. (F10489, ThermoFisher Scientific, Waltham, Mass.) or pHrodo AM (P35373, ThermoFisher Scientific, Waltham, Mass.) as described in the instruction manual. Fibers were rinsed once with Ringers then subsequently damaged and imaged on the Nikon A1R GaSP, as described above. Fluorescence intensity was measured using FIJI (NIH). phRodo change in fluorescence intensity was calculated as F/F0. Data was acquired from n=3 mice per experiment from multiple myofibers per mouse. […]
molecule,measurement,setting,value
B1,Km1/2 (repair cap area as a function of Ca2+ concentration),[1],0.12 mM
same,internal Fluo-4 Ca2+ fluorescence at the site of membrane injury,[2]; annexin A6 overexpression vs control myofibers,Reduction; also recorded: significantly decreased
same,size of GCaMP5G-containing blebs,"[2]; annexin overexpression vs annexin A1, A2 or GCaMP5G alone",significantly larger
same,number of extracellular (GCaMP5G-positive) blebs at the membrane lesion,[2]; annexin overexpression vs annexin A1 overexpression or GCaMP5G alone,significantly more blebs
same,internal GCaMP5G Ca2+ fluorescence at the site of injury,[2]; first 20 seconds post injury,significant reduction
same,internal GCaMP5G Ca2+ fluorescence at the site of injury,[2]; over 240 seconds of imaging,most significant reduction
same,internal GCaMP5G Ca2+ fluorescence at the site of injury,"[2]; over 240 seconds of imaging, listed as A6",significant reduction
